The target of assay [1] is T1, cynomolgus SIRPβ1 (XP_005568598) extracellular domain + His-tag (cynomolgus monkey).
T1 construct: SPR analyte; also called Cyno SIRPβ1 XP_005568598; cynoSIRPβ1; not shown: His-tag
T1 chain: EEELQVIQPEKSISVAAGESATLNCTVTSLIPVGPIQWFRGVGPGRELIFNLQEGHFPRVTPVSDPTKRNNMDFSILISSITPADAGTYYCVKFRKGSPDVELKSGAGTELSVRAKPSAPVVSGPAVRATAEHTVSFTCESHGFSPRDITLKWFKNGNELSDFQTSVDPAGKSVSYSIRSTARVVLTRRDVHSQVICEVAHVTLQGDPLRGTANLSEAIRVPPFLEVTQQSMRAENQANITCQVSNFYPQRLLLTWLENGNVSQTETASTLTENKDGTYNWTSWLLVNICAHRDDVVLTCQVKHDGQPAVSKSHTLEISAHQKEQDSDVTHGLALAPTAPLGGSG
Put plainly: SPR. The procedure: (§1) The binding affinity of anti-SIRPα antibodies to the various SIRPα analytes is determined by surface plasmon resonance (SPR) using a ProteOn XPR36 (Bio-Rad). The running buffer for this experiment and all dilutions (except where stated) are done in 1×HBS-EP+. […] The sensorchip is deactivated with 1M ethanolamine HCl for 420 sec at a flowrate of 10 μl/min.
(§2) The analyte is injected over the captured antibody for 300 sec at a flowrate of 30 μl/min. The dissociation is done for 600 sec. Two-fold serial dilutions of each SIRP protein (Extracellular Domain+His-Tag) are injected as analyte with the highest concentrations indicated in table 36 below.
A general note: SPR reads the build-up and loss of mass on a sensor chip optically.

Assay [2] has as its target T2, cynomolgus SIRPα (EGM_02252) extracellular domain + His-tag (cynomolgus monkey).
T2 construct: SPR analyte; also called CySIRPα EGM_02252; cynoSIRPα; not shown: His-tag
T2 chain: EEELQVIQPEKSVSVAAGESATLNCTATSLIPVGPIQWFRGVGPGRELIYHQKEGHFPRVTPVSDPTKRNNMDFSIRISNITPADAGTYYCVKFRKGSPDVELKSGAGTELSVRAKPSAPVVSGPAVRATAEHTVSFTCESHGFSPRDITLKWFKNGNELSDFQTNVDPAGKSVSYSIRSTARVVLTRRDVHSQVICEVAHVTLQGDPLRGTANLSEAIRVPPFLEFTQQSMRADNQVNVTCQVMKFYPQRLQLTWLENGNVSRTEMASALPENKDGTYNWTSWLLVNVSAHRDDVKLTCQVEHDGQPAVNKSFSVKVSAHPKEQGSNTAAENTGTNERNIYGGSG
In words: SPR. The procedure:
as §1, §2

Assay [3] concerns the target T3, cynomolgus SIRPγ (XP_005568591) extracellular domain + His-tag (cynomolgus monkey, UniProt Q9P1W8 29-359 (human entry)).
T3 construct: SPR analyte; also called Cyno SIRPγ XP_005568591; cynoSIRPγ; not shown: His-tag
T3 chain: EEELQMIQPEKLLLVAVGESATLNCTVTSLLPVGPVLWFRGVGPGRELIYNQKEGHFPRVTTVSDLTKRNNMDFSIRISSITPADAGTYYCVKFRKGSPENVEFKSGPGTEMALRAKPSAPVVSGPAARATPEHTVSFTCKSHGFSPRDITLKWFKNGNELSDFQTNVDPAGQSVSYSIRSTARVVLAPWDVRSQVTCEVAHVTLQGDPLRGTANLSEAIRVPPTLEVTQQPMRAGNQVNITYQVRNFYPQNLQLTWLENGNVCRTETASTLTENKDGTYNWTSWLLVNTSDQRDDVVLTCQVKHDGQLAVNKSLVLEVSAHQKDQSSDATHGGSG
In words: SPR. The procedure:
as §1, §2

Assay [4] deals with T4, cynomolgus SIRPβ1v3 (XP_005568593) extracellular domain + His-tag (cynomolgus monkey).
T4 construct: SPR analyte; also called Cyno SIRPβ1v3 XP_005568593; cynoSIRPβ1v3; not shown: His-tag
T4 chain: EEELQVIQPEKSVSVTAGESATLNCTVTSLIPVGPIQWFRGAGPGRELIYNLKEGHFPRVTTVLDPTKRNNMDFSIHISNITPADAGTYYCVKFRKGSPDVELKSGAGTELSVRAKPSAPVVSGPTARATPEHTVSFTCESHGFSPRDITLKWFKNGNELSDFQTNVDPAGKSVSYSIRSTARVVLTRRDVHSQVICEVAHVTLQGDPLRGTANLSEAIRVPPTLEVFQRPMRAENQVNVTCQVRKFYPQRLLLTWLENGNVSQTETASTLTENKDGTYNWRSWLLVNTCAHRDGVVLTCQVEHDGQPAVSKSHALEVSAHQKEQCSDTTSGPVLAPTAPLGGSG
In words: SPR, antibody captured, ECD-His analyte. The procedure: as §1, §2

Substitutions are numbered along the chain they refer to.

B1: Antibody E7 (antibody, human IgG1, kappa, L234A L235A, V domains shown)
VH: QVQLQESGPGLVRPSETLSLTCTVSGGSIRNYYWSWIRQPPGKGLEWIGFIYYNGRTFYNPSLKSRVTISLDTSKNQFSLKMTSVTAADTAVYYCARVRAYSGIGLDGTDVWGQGTTVTVSS
VL: DIVMTQSPLSLPVTPGEPASISCKSSQSLLYSNGYAYLDWYLQRPGQSPQLLIYQGSNRASGVPDRFSGSGSGTDFTLKISRVEAEDVGVFYCMQALQTPLTFGGGTKVEIKR
As usually defined, the Kd is the free concentration of one partner at which half of the binding sites on the other are occupied at equilibrium, for simple one-to-one binding. Consider B1, for which the binding result in assay [1], in assay [2] and in assay [3] was “no binding (tested: 1000 nM)” throughout. In addition, the Kd in assay [4] amounted to 13.1 nM.

B2: Antibody E8 (antibody, human IgG1, kappa, L234A L235A, V domains shown)
VH: B1 VH with I48M, Y53D, T73M, K75M
VL: B1 VL
Take B2: the binding result in assay [1], in assay [2] and in assay [3] was “no binding (tested: 1000 nM)” in each case. The Kd in assay [4] was 10.8 nM.

B3: Antibody E12 (antibody, human IgG1, kappa, L234A L235A, V domains shown)
VH: B1 VH with T73M
VL: B1 VL with G34A, A36N, Q55L, F91Y
In the case of B3, the binding result in assay [1], in assay [2] and in assay [3] was “no binding (tested: 1000 nM)” in each case. Moreover, in assay [4], the Kd turned out to be 27.9 nM.

B4: Antibody E15 (antibody, human IgG1, kappa, L234A L235A, V domains shown)
VH: B1 VH with N54T, T73M, K75I
VL: B1 VL with Q55L, F91Y
Take B4: the binding result in assay [1], in assay [2] and in assay [3] was “no binding (tested: 1000 nM)” throughout. For the same molecule, the Kd in assay [4] was 25.8 nM.

B5: Antibody E11 (antibody, human IgG1, kappa, L234A L235A, V domains shown)
VH: B1 VH with I48M, Y53D, T73M, K75M
VL: B1 VL with Q55L, F91Y
Turning to B5, the binding result in assay [1], in assay [2] and in assay [3] was “no binding (tested: 1000 nM)” each time. Moreover, the Kd in assay [4] is 13.2 nM.

B6: Antibody E9 (antibody, human IgG1, kappa, L234A L235A, V domains shown)
VH: B1 VH with T73M, K75I
VL: B1 VL with G34A, A36N, Q55L, F91Y
As to B6, the binding result in assay [1], in assay [2] and in assay [3] was “no binding (tested: 1000 nM)” throughout. In addition, in assay [4], the Kd came to 25.1 nM.

B7: Antibody E14 (antibody, human IgG1, kappa, L234A L235A, V domains shown)
VH: B1 VH with T73K
VL: B1 VL with G34A, A36N, Q55L, F91Y
B7: the binding result in assay [1], in assay [2] and in assay [3] was “no binding (tested: 1000 nM)” throughout. The Kd in assay [4] is 51.9 nM.

B8: Antibody E10 (antibody, human IgG1, kappa, L234A L235A, V domains shown)
VH: B1 VH
VL: B1 VL with Q55L, F91Y
Turning to B8, the binding result in assay [1], in assay [2] and in assay [3] was “no binding (tested: 1000 nM)” each time. For the same molecule, in assay [4], the Kd amounted to 15.7 nM.

B9: Antibody E13 (antibody, human IgG1, kappa, L234A L235A, V domains shown)
VH: B1 VH with N54T, T73M, K75I
VL: B1 VL
On to B9, for which the binding result in assay [1], in assay [2] and in assay [3] was “no binding (tested: 1000 nM)” in each case. In addition, the Kd in assay [4] worked out at 20.5 nM.

The values above are taken from patent US20230012273A1 (Boehringer Ingelheim, published 2023).
